Results: patent US20240360233A1 (University of Texas, published 2024)

T1: his-tagged TSLPR (TSLPR-HIS) (UniProt Q9HC73 23-231, limits assumed)
T1 construct: Soluble protein used in the ForteBio assay; not shown: His tag
T1 sequence (looked up): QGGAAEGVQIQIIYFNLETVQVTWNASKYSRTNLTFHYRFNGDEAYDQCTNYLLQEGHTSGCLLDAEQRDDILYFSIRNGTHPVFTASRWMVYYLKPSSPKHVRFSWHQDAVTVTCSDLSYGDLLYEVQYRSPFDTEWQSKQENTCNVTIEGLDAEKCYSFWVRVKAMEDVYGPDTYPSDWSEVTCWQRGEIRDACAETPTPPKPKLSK

T2: TSLPR on TSLPR-expressing REH cells (UniProt Q9HC73 23-371)
T2 sequence (looked up): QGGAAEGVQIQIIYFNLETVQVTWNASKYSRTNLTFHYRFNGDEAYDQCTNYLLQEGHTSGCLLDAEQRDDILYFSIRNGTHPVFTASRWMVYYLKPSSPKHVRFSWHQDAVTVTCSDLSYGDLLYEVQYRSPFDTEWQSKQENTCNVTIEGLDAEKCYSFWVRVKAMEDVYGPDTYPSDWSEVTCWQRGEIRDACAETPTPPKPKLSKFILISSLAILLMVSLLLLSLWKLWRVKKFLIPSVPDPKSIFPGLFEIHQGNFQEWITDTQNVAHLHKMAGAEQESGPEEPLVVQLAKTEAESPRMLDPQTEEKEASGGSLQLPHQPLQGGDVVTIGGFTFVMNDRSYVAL

T3: human TSLPR protein (human, UniProt Q9HC73 23-231, limits assumed)
T3 sequence (looked up): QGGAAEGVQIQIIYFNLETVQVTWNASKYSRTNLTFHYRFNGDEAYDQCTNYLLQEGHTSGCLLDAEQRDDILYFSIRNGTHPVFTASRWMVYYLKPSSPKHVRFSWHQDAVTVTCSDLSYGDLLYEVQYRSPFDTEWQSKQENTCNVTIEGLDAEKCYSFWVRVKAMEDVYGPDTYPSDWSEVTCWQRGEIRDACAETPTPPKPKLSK


Legend:
[1] = biological target: T1, his-tagged TSLPR (TSLPR-HIS); assay: BLI (ForteBio AHQ sensor), antibody captured, TSLPR-HIS in solution
Experimental: TSLPR antibody clones whose VH and VL sequences are disclosed in Tables 9 and 10 were bound to the AHQ sensor and his-tagged TSLPR (TSLPR-HIS) was provided in solution. […] The anti-TSLPR antibodies were serially diluted with an HBS-EP solution (GE Healthcare), and 100 μL of the solution was added to the flow path at a flow rate of […].

[2] = biological target: T2, TSLPR on TSLPR-expressing REH cells; assay: cell-based or functional assay
human TSLPR protein = biological target: T3, human TSLPR protein; assay: SPR (BIAcore)
cynomolgus TSLPR = cynomolgus TSLPR (cynomolgus); assay: SPR (BIAcore)

| Binder | Kd [1] [nM] | koff [1] [s⁻¹] | kon [1] [M⁻¹ s⁻¹] | EC50 (Promega ADCC reporter assay, RLU) [2] [nM] | Kd (human TSLPR protein) [nM] | Kd (cynomolgus TSLPR) [nM] |
| --- | --- | --- | --- | --- | --- | --- |
| TSLPR antibody clone 1A9 (antibody, V domains shown, also called TSLPR-4; TSLPR-004) VH: QVQLQESGPGLVKPSETLSLTCAVSGYSISSGYYWGWIRQPPGKGLEWIGRIYHSGTTSYNPSLKRRVTISVDTSKNQFSLKLSSVTATDTAVYYCARNWGGNWFDPWGQGTLVTVSS VL: EIVLTQSPATLSLSPGERATLSCRASQSVSSYLAWYQQKPGQAPRLLIYDASNRATGIPARFSGSGSGTDFTLTISSLEPEDFAVYYCQQRSTWLTFGGGTKVDIKR | 4.45 | 0.000769 | 173000 | 0.03 | – | – |
| TSLPR antibody clone 1B7 (antibody, V domains shown, also called TSLPR-6; TSLPR-006) VH: QVQLQESGPGLVKPSGTLSLTCAVSGGSISSSNWWSWVRQPPGKGLEWIGEIYHGGTTNNNPSLKSRVTISVDKSKSQFSLKLSSVTAADTAVYYCARHRYSNGLDYWGQGTLVTVSS VL: not shown | 2.82 | 0.00079 | 280000 | 0.08 | ~2.87 | ~2.03 |
